Values quoted from earlier work in patent US12576131B2, “Altering inflammatory states of immune cells in vivo by modulating cellular activation states” (Fred Hutchinson Cancer Center, priority 2018, dated 2026).

System: IRF8 responsive genes
Details: mutation of the K310 residue prevents SUMO binding

B1: murine IRF8 mutant: murine IRF8 with substitution of Lysine (K) at residue 310 with Arginine (R), SEQ ID NO: 17 (protein)
chain: MCDRNGGRRLRQWLIEQIDSSMYPGLIWENDEKTMFRIPWKHAGKQDYNQEVDASIFKAWAVFKGKFKEGDKAEPATWKTRLRCALNKSPDFEEVTDRSQLDISEPYKVYRIVPEEEQKCKLGVAPAGCMSEVPEMECGRSEIEELIKEPSVDEYMGMTKRSPSPPEACRSQILPDWWVQQPSAGLPLVTGYAAYDTHHSAFSQMVISFYYGGKLVGQATTTCLEGCRLSLSQPGLPKLYGPDGLEPVCFPTADTIPSERQRQVTRKLFGHLERGVLLHSNRKGVFVKRLCQGRVFCSGNAVVCKGRPNRLERDEVVQVFDTNQFIRELQQFYATQSRLPDSRVVLCFGEEFPDTVPLRSKLILVQVEQLYARQLVEEAGKSCGAGSLMPALEEPQPDQAFRMFPDICTSHQRPFFRENQQITV
- increase in IRF8 specific gene transcription: 2-5 fold
